Test system: EGFR+NSCLC patients
Assay: Phase II clinical trial, safety study (treatment-related adverse effects)
Conditions: with pemetrexed + carboplatin; n = 40

## toripalimab: anti-PD-1 humanized IgG4 mAb with light and heavy chains of SEQ ID NOs: 9 and 10; described in WO 2014206107
  Elevated glutamyltransferase (TRAE), incidence of grade 3-5: 0%
  Elevated glutamyltransferase (TRAE), total incidence: (10.0) %
  Influenza and other diseases (TRAE), incidence of grade 3-5: 0%
  Influenza and other diseases (TRAE), total incidence: (10.0) %
  Leukopenia (TRAE), incidence of grade 3-5: (22.5) %
  Urinary tract infection (TRAE), incidence of grade 3-5: 0%
  Urinary tract infection (TRAE), total incidence: (12.5) %
